Measured values as given in publication PMC11151596, “Improving the enzymatic activity and stability of N-carbamoyl hydrolase using deep learning approach” (Microbial Cell Factories, 2024).

Substrate: NC(=O)NC(C(=O)O)c1ccc(O)cc1
Test: HPLC of D-HPG formed, double reciprocal plot
Type: biochemical, Agrobacterium sp. KNK712
Details: 50 mM Tris-HCl pH 7.5, 65 °C, 0.1-10.0 mM CpHPG
From the text: HPLC of D-HPG formed, double reciprocal plot on DCase (N-carbamoyl-D-amino acid amidohydrolase, EC 3.5.1.77; N-carbamoyl hydrolase)

B1: DCase (N-carbamoyl-D-amino acid amidohydrolase, EC 3.5.1.77; N-carbamoyl hydrolase) (Agrobacterium sp. KNK712) (protein)
chain: MTRQMILAVGQQGPIARAETREQVVVRLLDMLTKAASRGANFIVFPELALTTFFPRWHFTDEAELDSFYETEMPGPVVRPLFEKAAELGIGFNLGYAELVVEGGVKRRFNTSILVDKSGKIVGKYRKIHLPGHKEYEAYRPFQHLEKRYFEPGDLGFPVYDVDAAKMGMFICNDRRWPEAWRVMGLRGAEIICGGYNTPTHNPPVPQHDHLTSFHHLLSMQAGSYQNGAWSAAAGKVGMEENCMLLGHSCIVAPTGEIVALTTTLEDEVITAAVDLDRCRELREHIFNFKQHRQPQHYGLIAEL
notes: pET-28a(+)-Case, N- and C-terminal His6 tags, expressed in E. coli BL21(DE3), Ni-NTA purified, about 37 kDa
Question: For B1, which Km is on record?
Answer: 2590 ± 220 µM

Question: What about the kcat of the same protein?
Answer: 7.98 ± 0.212 s⁻¹

Question: What about the kcat/Km of the same protein?
Answer: 3080 ± 218 M⁻¹ s⁻¹
